Drawing on the supplement of paper PMC10724198, this text covers protein stability index for 116 sequences.

± gives the standard deviation of the averaged measurements.
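Further: PSI is a weighted mean of sequencing reads over stability bins, variants kept only with over 10 reads, mCherry proximal and sfGFP distal, peptide attached via GGGS linker.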

This data set concerns Saccharomyces cerevisiae. The experiment in a line: protein stability index of tFT-peptide fusion (C-terminal peptide) (PSI (0-1 scale)); higher = more stable (slower turnover). The note with it: genetic background: wild type; temperature: 30 C. The procedure: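 Multiplexed protein stability (MPS) profiling in S. cerevisiae. Random 12-aa peptides (tFT-X12 library) are fused to the C-terminus of a sfGFP-mCherry tandem fluorescent timer, after mCherry and a GGGS linker. Cells are FACS-sorted into 8 mCherry/sfGFP bins and deep-sequenced. The protein stability index (PSI) is the read-weighted bin average, scaled from 0 (unstable) to 1 (stable). Only peptides with >10 reads are reported; cells were grown at 30 °C in SC-His with glucose.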
AVKRNDALGIQF had a protein stability index of 0.718 ± 0.046.
Next, AVLFDQLGGRWR: 0.614 ± 0.061; AVLTDKKGRVRS: 0.703 ± 0.036; AVLTLRAPPSAL: 0.708 ± 0.025.
Next, AVPRPSPPPPPL: 0.674 ± 0.0086; AVQESVSHSLVL: 0.723 ± 0.0012.
For AVRLALAPQVGA, the protein stability index amounted to 0.617 ± 0.018.
AVRPGEAGCAGL: the protein stability index was 0.664 ± 0.12.
Take AVRSILYRVATR: the protein stability index worked out at 0.729 ± 0.06.
Next, AVVVDWLAQVLH: 0.757 ± 0.068.
Next, AVYRPFPFRSGI: 0.699 ± 0.015; AWCGGVVGVAWL: 0.6661 ± 0.0062.
The sequence AWCLLTRWDLLL registered a protein stability index of 0.609 ± 0.0014.
In turn, AYGVGQERWVRE came in with a protein stability index of 0.725 ± 0.061.
For the sequence AYKCLPAKGADS, the protein stability index came to 0.695 ± 0.047.
Sequence AYLCLLPPFFTV registered a protein stability index of 0.674 ± 0.037.
On to AYQFLCFSGMIT, for which the protein stability index stood at 0.761 ± 0.27.
Regarding AYSMMNLYNFAL, the protein stability index worked out at 0.67 ± 0.014.
For the sequence AYVSLRASLLSS, the protein stability index is 0.633 ± 0.063.
Next, CAGRVWVGLCGV: 0.685 ± 0.094.
CARYFFLHPSLG: the protein stability index came out at 0.67961 ± 1.3e-05.
For CASPSPPPAPVL, the protein stability index is 0.68 ± 0.022.
Take CCGLYLGAGCAY: the protein stability index worked out at 0.674 ± 0.017.
CCLFLACANFFV yielded a protein stability index of 0.551 ± 0.031.
The sequence CCLSFMSPFFCF registered a protein stability index of 0.75 ± 0.026.
CCVSFFISFGGR: the protein stability index amounted to 0.554 ± 0.03.
Regarding CCVYFLSMFFVL, the protein stability index was 0.575 ± 0.026.
Consider CDCIAFISRSFS, for which the protein stability index was found to be 0.675 ± 0.039.
Turning to CDGPFRLVLGGG, the protein stability index turned out to be 0.672 ± 0.018.
Turning to CDRVIGSRGVTY, the protein stability index was found to be 0.688 ± 0.0071.
Regarding CEAWLTDEGLRD, the protein stability index worked out at 0.742 ± 0.016.
The sequence CERHWADRNTSV displayed a protein stability index of 0.7445 ± 0.0064.
Take CFCWLFLVGRAD: the protein stability index was determined as 0.5734 ± 0.0024.
In turn, CFCYSLSINLNL yielded a protein stability index of 0.522 ± 0.0072.
Next, CFGFAGVGSLSC: 0.752 ± 0.13; CFGFSLKFGTGK: 0.668 ± 0.033; CFKETLLKGSRQ: 0.718 ± 0.034.
The sequence CFLPACPSPGDS yielded a protein stability index of 0.737 ± 0.075.
CFLPGFYFLFSI showed a protein stability index of 0.561 ± 0.033.
Next, CFPLPRPLPYME: 0.654 ± 0.12.
Next, CFSCLWVPLLPS: 0.649 ± 0.008.
The sequence CFSMGKRGLRGR showed a protein stability index of 0.686 ± 0.026.
Next, CFSSLRFCLPSV: 0.686 ± 0.00021.
For the sequence CFVSFFWRCFFG, the protein stability index stood at 0.515 ± 0.045.
For CFWTSFVWPGCA, the protein stability index turned out to be 0.684 ± 0.00095.
In the case of CGAGIYTRCTGR, the protein stability index was found to be 0.6613 ± 0.001.
CGALRLPSSREV yielded a protein stability index of 0.604 ± 0.021.
In turn, CGGKTEKRKKYT had a protein stability index of 0.6062 ± 0.0034.
CGGRKTPPPPRH: the protein stability index was 0.688 ± 0.054.
CGGRWGTYYRRV had a protein stability index of 0.7 ± 0.042.
Next, CGGSCLQDGGWA: 0.787 ± 0.1.
Sequence CGHMSTSNANLS showed a protein stability index of 0.687 ± 0.051.
The sequence CGLGGLYLVLHD yielded a protein stability index of 0.671 ± 0.067.
Regarding CGLRVVGVVGAP, the protein stability index came out at 0.712 ± 0.062.
CGLSYSAVDLGV: the protein stability index was found to be 0.684 ± 0.01.
For CGPRPDSIDVGF, the protein stability index stood at 0.608 ± 0.052.
Turning to CGRFCLQGEYIV, the protein stability index amounted to 0.705 ± 0.12.
On to CGRPRGVEPGGA, for which the protein stability index was found to be 0.754 ± 0.12.
In the case of CGSDRINACVRI, the protein stability index stood at 0.727 ± 0.032.
On to CGSVEVVVVRGS, for which the protein stability index turned out to be 0.587 ± 0.054.
With CGTPDLGLLRAT, the protein stability index is 0.74 ± 0.054.
The sequence CGVSPPHANLVS registered a protein stability index of 0.569 ± 0.036.
CGVVSSSVDCIN returned a protein stability index of 0.699 ± 0.028.
CHYSSFISFVVV: the protein stability index is 0.594 ± 0.024.
With CICFLDGCSFVN, the protein stability index turned out to be 0.755 ± 0.14.
On to CIFCCGWCLDRL, for which the protein stability index was 0.719 ± 0.058.
CIFFSPFSFLLP: the protein stability index stood at 0.654 ± 0.035.
Consider CILPFFFFVSPD, for which the protein stability index amounted to 0.652 ± 0.084.
The sequence CIRGFQVRGYFK came in with a protein stability index of 0.791 ± 0.19.
As to CIVDFLGISSGI, the protein stability index turned out to be 0.659 ± 0.057.
Next, CKKGCTEVKNAV: 0.719 ± 0.084.
With CLAPSIPPPLSS, the protein stability index is 0.702 ± 0.036.
Next, CLFPPTARHSFP: 0.778 ± 0.036; CLFPPYDYFFPF: 0.734 ± 0.091; CLGPDWWARRSI: 0.772 ± 0.064.
CLGRLRLMSSCR: the protein stability index is 0.688 ± 0.044.
Sequence CLLAAMTFYTVR showed a protein stability index of 0.711 ± 0.029.
Regarding CLPSLPPFPASL, the protein stability index came to 0.738 ± 0.064.
In turn, CLQRPVSAGMVT came in with a protein stability index of 0.676 ± 0.027.
Next, CLSGVLDFLLFL: 0.648 ± 0.0085; CLSILRNVVPII: 0.723 ± 0.08; CLSLVCGFPVVY: 0.605 ± 0.0099.
CLTHLLPPAFPC returned a protein stability index of 0.694 ± 0.018.
Take CMEYFMHFVKGD: the protein stability index was determined as 0.701 ± 0.06.
CMFRCCLRSLVL: the protein stability index worked out at 0.639 ± 0.0064.
CMGASRTRILTR had a protein stability index of 0.681 ± 0.046.
Next, CNCGGRGCGWMR: 0.651 ± 0.025; CNDAYKSKLARL: 0.696 ± 0.034.
Sequence CNGVGRLPGTPG returned a protein stability index of 0.685 ± 0.0086.
Next, CNQRRWRGRKGY: 0.67 ± 0.01; CPCAWFSFLCFS: 0.666 ± 0.0066; CPPPFLCSPFVA: 0.669 ± 0.022.
Sequence CPPPPPRPPLPP had a protein stability index of 0.689 ± 0.056.
With CPPVRLSLPPSL, the protein stability index was found to be 0.68 ± 0.019.
Next, CPSSFSALSNSR: 0.671 ± 0.049; CQFHHHPDLTIK: 0.609 ± 0.077; CRASGGVSCGAS: 0.639 ± 0.046.
On to CRCTKVVVFGYP, for which the protein stability index is 0.667 ± 0.022.
Next, CRGPTQFAGPAP: 0.68 ± 0.088.
Next, CRILSPLPAIFV: 0.5298 ± 0.0045.
CRLILLVCNGAG displayed a protein stability index of 0.521 ± 0.027.
Next, CRSGSGGGIRGR: 0.741 ± 0.011; CRSRRPFGSDPI: 0.69 ± 0.019.
Next, CRTGHCRLTSKM: 0.708 ± 0.019.
For the sequence CRVWRAPSGWVG, the protein stability index is 0.646 ± 0.03.
Sequence CRWRLGRLARCA displayed a protein stability index of 0.515 ± 0.0084.
In turn, CSATVLSNCTFP yielded a protein stability index of 0.687 ± 0.051.
The sequence CSEHFLIDTYPA gave a protein stability index of 0.679 ± 0.05.
With CSLGCSLSALDS, the protein stability index worked out at 0.663 ± 0.025.
CSMGGWPTERGI displayed a protein stability index of 0.6968 ± 0.0039.
As to CSPGLSGCVSYV, the protein stability index came to 0.665 ± 0.12.
CSRDWRCNVRPV: the protein stability index amounted to 0.715 ± 0.022.
Turning to CSSEGFSLASMI, the protein stability index was 0.707 ± 0.025.
The sequence CSWNLLAHPPAQ gave a protein stability index of 0.744 ± 0.0093.
Next, CSYIQTSKTVVS: 0.756 ± 0.082; CTAVGFISFWMA: 0.629 ± 0.081.
